Key:
[1] = tested on: CC(C)=CCC[C@@H](C)[C@H]1CC[C@@]2(C)C3=C(CC[C@]12C)[C@@]1(C)CC[C@H](O)C(C)(C)[C@@H]1CC3; test: purified protein, by the assay type; conditions: other: 37 °C, 1 min reactions obtusifoliol, 20 min lanosterol
[2] = tested on: C=C(CC[C@@H](C)[C@H]1CC[C@@]2(C)C3=C(CC[C@]12C)[C@@]1(C)CC[C@H](O)[C@@H](C)[C@@H]1CC3)C(C)C; test: purified protein, by the assay type; conditions: other: 37 °C, 1 min reactions obtusifoliol, 20 min lanosterol
A. castellanii CYP51 = target: T1, A. castellanii CYP51 (Acanthamoeba castellanii, UniProt L8GJB3, V2A); test: A. castellanii CYP51 inhibition assay, reconstituted 1 h enzyme reaction; assay type: biochemical; conditions: 1 h IC50, 1 h reaction, 0.5 μM P450, 50 μM obtusifoliol
T1 sequence (L8GJB3 1-486 V2A): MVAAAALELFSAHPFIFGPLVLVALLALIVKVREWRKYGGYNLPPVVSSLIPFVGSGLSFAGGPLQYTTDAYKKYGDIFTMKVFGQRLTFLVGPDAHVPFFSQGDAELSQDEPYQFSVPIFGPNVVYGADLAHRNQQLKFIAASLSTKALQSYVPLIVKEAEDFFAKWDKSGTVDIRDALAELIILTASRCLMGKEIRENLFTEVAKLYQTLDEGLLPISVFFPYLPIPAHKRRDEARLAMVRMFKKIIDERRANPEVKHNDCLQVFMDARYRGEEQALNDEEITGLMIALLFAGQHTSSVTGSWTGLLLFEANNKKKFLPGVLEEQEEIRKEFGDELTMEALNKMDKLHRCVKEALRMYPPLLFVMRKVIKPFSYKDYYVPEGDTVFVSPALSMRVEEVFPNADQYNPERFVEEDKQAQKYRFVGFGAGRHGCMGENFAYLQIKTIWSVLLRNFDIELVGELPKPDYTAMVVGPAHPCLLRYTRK
T1 sequence (P00388 2-678 partner): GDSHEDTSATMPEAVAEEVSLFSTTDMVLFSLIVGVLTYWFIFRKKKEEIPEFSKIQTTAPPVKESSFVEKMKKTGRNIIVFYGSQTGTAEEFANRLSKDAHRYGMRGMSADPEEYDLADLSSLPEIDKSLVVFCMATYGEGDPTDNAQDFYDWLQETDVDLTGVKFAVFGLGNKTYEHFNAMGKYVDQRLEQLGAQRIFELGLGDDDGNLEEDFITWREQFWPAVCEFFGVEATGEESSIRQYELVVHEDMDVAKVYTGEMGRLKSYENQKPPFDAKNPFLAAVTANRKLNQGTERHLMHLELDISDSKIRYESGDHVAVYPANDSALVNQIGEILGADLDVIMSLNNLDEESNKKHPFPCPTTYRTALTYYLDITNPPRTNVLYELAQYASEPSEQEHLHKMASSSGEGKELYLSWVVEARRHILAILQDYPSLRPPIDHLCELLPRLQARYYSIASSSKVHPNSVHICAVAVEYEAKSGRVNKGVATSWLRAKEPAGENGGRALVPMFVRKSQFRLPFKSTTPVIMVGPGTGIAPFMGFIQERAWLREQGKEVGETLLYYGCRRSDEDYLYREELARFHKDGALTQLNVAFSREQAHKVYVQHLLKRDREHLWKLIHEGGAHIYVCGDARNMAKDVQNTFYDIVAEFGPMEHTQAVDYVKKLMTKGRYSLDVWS

Work on “A. castellanii CYP51 (Acanthamoeba castellanii str. Neff; V2A)” yielded a Km [1] of 52 ± 15 µM, a kcat [1] of 0.102 s⁻¹ and a kcat/Km [1] of 2000 M⁻¹ s⁻¹. It also gave a Km [2] of 2.7 ± 0.3 µM, a kcat [2] of 0.513 s⁻¹ and a kcat/Km [2] of 190000 M⁻¹ s⁻¹.
`OC(Cn1cncn1)(Cn1cncn1)c1ccc(F)cc1F` [fluconazole] gave an IC50 (A. castellanii CYP51) of 71 µM.

— publication PMC11089504 (Journal of medicinal chemistry, 2024)
